Measured values: US20220169728A1 (AB THERAPEUTICS, published 2022)

Molecular target: CD3 (Homo sapiens (Human), UniProt P07766 23-207; P04234 22-171; P09693 23-182)
Test: cell-based or functional assay

CD3, sequence (P07766 23-207 limits assumed, chain 1 of 3): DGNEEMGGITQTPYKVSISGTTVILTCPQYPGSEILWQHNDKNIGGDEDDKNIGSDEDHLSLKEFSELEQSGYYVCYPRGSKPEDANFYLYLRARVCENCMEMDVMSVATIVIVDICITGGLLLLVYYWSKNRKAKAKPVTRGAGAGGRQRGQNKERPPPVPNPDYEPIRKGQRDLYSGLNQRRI
CD3, sequence (P04234 22-171 limits assumed, chain 2 of 3): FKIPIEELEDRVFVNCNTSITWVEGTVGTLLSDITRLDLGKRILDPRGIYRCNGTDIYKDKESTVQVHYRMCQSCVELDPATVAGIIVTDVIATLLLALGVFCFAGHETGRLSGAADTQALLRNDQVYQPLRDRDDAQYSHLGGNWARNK
CD3, sequence (P09693 23-182 limits assumed, chain 3 of 3): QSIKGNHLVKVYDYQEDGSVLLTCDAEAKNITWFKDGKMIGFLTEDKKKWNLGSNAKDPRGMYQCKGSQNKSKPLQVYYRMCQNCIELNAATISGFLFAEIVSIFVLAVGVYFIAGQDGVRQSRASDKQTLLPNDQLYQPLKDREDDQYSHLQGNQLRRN

| Function % 0.025 ug/ml (T cell activation, CD69 on Jurkat cells with Raji cells, against the unmutated baseline) | Function % 2 ug/ml (T cell activation, CD69 on Jurkat cells with Raji cells, against the unmutated baseline) | Binder |
| --- | --- | --- |
| 13% | 52% | CD20/CD3 BsMab with common VL (SEQ ID NO: 3) P95T (bispecific antibody, V domains shown) VH 1: QVQLQQPGAELVKPGASVKMSCKASGYTFTSYNMHWVKQTPGRGLEWIGAIYPGNGDTSYNQKFKGKATLTADKSSSTAYMQLSSLRSEDSAVYYCARSTYYGGDWYFNVWGAGTTVTVSA VH 2: EVQLQESGAELARPGASVKMSCKASGYTFTSYTMHWVKQRPGEGLEWIGYINPSSGYTKYNQKFKDKATLTADKSSSTAYMELSSLTSEDSAVYYCARWQDYDVYFDYWGEGTTLTVSS VL: QIVLSQSPAILSASPGEKVTMTCRASSSVSYIHWFQQKPGSSPKPWIYATSNLASGVPVRFSGSGSGTSYSLTISRVEAEDAATYYCQQWTSNPTTFGGGTKLEIKR |
| 14% | 87% | CD20/CD3 BsMab with common VL (SEQ ID NO: 3) H33W (bispecific antibody, V domains shown) VH 1: QVQLQQPGAELVKPGASVKMSCKASGYTFTSYNMHWVKQTPGRGLEWIGAIYPGNGDTSYNQKFKGKATLTADKSSSTAYMQLSSLRSEDSAVYYCARSTYYGGDWYFNVWGAGTTVTVSA VH 2: EVQLQESGAELARPGASVKMSCKASGYTFTSYTMHWVKQRPGEGLEWIGYINPSSGYTKYNQKFKDKATLTADKSSSTAYMELSSLTSEDSAVYYCARWQDYDVYFDYWGEGTTLTVSS VL: QIVLSQSPAILSASPGEKVTMTCRASSSVSYIWWFQQKPGSSPKPWIYATSNLASGVPVRFSGSGSGTSYSLTISRVEAEDAATYYCQQWTSNPPTFGGGTKLEIKR |
| 109% | 96% | CD20/CD3 BsMab with common VL (SEQ ID NO: 3) H33D (bispecific antibody, V domains shown) VH 1: QVQLQQPGAELVKPGASVKMSCKASGYTFTSYNMHWVKQTPGRGLEWIGAIYPGNGDTSYNQKFKGKATLTADKSSSTAYMQLSSLRSEDSAVYYCARSTYYGGDWYFNVWGAGTTVTVSA VH 2: EVQLQESGAELARPGASVKMSCKASGYTFTSYTMHWVKQRPGEGLEWIGYINPSSGYTKYNQKFKDKATLTADKSSSTAYMELSSLTSEDSAVYYCARWQDYDVYFDYWGEGTTLTVSS VL: QIVLSQSPAILSASPGEKVTMTCRASSSVSYIDWFQQKPGSSPKPWIYATSNLASGVPVRFSGSGSGTSYSLTISRVEAEDAATYYCQQWTSNPPTFGGGTKLEIKR |
| 15% | 90% | CD20/CD3 BsMab with common VL (SEQ ID NO: 3) N93S (bispecific antibody, V domains shown) VH 1: QVQLQQPGAELVKPGASVKMSCKASGYTFTSYNMHWVKQTPGRGLEWIGAIYPGNGDTSYNQKFKGKATLTADKSSSTAYMQLSSLRSEDSAVYYCARSTYYGGDWYFNVWGAGTTVTVSA VH 2: EVQLQESGAELARPGASVKMSCKASGYTFTSYTMHWVKQRPGEGLEWIGYINPSSGYTKYNQKFKDKATLTADKSSSTAYMELSSLTSEDSAVYYCARWQDYDVYFDYWGEGTTLTVSS VL: QIVLSQSPAILSASPGEKVTMTCRASSSVSYIHWFQQKPGSSPKPWIYATSNLASGVPVRFSGSGSGTSYSLTISRVEAEDAATYYCQQWTSSPPTFGGGTKLEIKR |
| 34% | 94% | CD20/CD3 BsMab with common VL (SEQ ID NO: 3) H33P (bispecific antibody, V domains shown) VH 1: QVQLQQPGAELVKPGASVKMSCKASGYTFTSYNMHWVKQTPGRGLEWIGAIYPGNGDTSYNQKFKGKATLTADKSSSTAYMQLSSLRSEDSAVYYCARSTYYGGDWYFNVWGAGTTVTVSA VH 2: EVQLQESGAELARPGASVKMSCKASGYTFTSYTMHWVKQRPGEGLEWIGYINPSSGYTKYNQKFKDKATLTADKSSSTAYMELSSLTSEDSAVYYCARWQDYDVYFDYWGEGTTLTVSS VL: QIVLSQSPAILSASPGEKVTMTCRASSSVSYIPWFQQKPGSSPKPWIYATSNLASGVPVRFSGSGSGTSYSLTISRVEAEDAATYYCQQWTSNPPTFGGGTKLEIKR |
| 16% | 93% | CD20/CD3 BsMab with common VL (SEQ ID NO: 3) H33L (bispecific antibody, V domains shown) VH 1: QVQLQQPGAELVKPGASVKMSCKASGYTFTSYNMHWVKQTPGRGLEWIGAIYPGNGDTSYNQKFKGKATLTADKSSSTAYMQLSSLRSEDSAVYYCARSTYYGGDWYFNVWGAGTTVTVSA VH 2: EVQLQESGAELARPGASVKMSCKASGYTFTSYTMHWVKQRPGEGLEWIGYINPSSGYTKYNQKFKDKATLTADKSSSTAYMELSSLTSEDSAVYYCARWQDYDVYFDYWGEGTTLTVSS VL: QIVLSQSPAILSASPGEKVTMTCRASSSVSYILWFQQKPGSSPKPWIYATSNLASGVPVRFSGSGSGTSYSLTISRVEAEDAATYYCQQWTSNPPTFGGGTKLEIKR |
| 89% | 104% | CD20/CD3 BsMab with common VL (SEQ ID NO: 3) H33E (bispecific antibody, V domains shown) VH 1: QVQLQQPGAELVKPGASVKMSCKASGYTFTSYNMHWVKQTPGRGLEWIGAIYPGNGDTSYNQKFKGKATLTADKSSSTAYMQLSSLRSEDSAVYYCARSTYYGGDWYFNVWGAGTTVTVSA VH 2: EVQLQESGAELARPGASVKMSCKASGYTFTSYTMHWVKQRPGEGLEWIGYINPSSGYTKYNQKFKDKATLTADKSSSTAYMELSSLTSEDSAVYYCARWQDYDVYFDYWGEGTTLTVSS VL: QIVLSQSPAILSASPGEKVTMTCRASSSVSYIEWFQQKPGSSPKPWIYATSNLASGVPVRFSGSGSGTSYSLTISRVEAEDAATYYCQQWTSNPPTFGGGTKLEIKR |
| 65% | 104% | CD20/CD3 BsMab with common VL (SEQ ID NO: 3) H33A (bispecific antibody, V domains shown) VH 1: QVQLQQPGAELVKPGASVKMSCKASGYTFTSYNMHWVKQTPGRGLEWIGAIYPGNGDTSYNQKFKGKATLTADKSSSTAYMQLSSLRSEDSAVYYCARSTYYGGDWYFNVWGAGTTVTVSA VH 2: EVQLQESGAELARPGASVKMSCKASGYTFTSYTMHWVKQRPGEGLEWIGYINPSSGYTKYNQKFKDKATLTADKSSSTAYMELSSLTSEDSAVYYCARWQDYDVYFDYWGEGTTLTVSS VL: QIVLSQSPAILSASPGEKVTMTCRASSSVSYIAWFQQKPGSSPKPWIYATSNLASGVPVRFSGSGSGTSYSLTISRVEAEDAATYYCQQWTSNPPTFGGGTKLEIKR |
| 99% | 106% | CD20/CD3 BsMab with common VL (SEQ ID NO: 3) H33T (bispecific antibody, V domains shown) VH 1: QVQLQQPGAELVKPGASVKMSCKASGYTFTSYNMHWVKQTPGRGLEWIGAIYPGNGDTSYNQKFKGKATLTADKSSSTAYMQLSSLRSEDSAVYYCARSTYYGGDWYFNVWGAGTTVTVSA VH 2: EVQLQESGAELARPGASVKMSCKASGYTFTSYTMHWVKQRPGEGLEWIGYINPSSGYTKYNQKFKDKATLTADKSSSTAYMELSSLTSEDSAVYYCARWQDYDVYFDYWGEGTTLTVSS VL: QIVLSQSPAILSASPGEKVTMTCRASSSVSYITWFQQKPGSSPKPWIYATSNLASGVPVRFSGSGSGTSYSLTISRVEAEDAATYYCQQWTSNPPTFGGGTKLEIKR |
| 9% | 54% | CD20/CD3 BsMab with common VL (SEQ ID NO: 3) H33R (bispecific antibody, V domains shown) VH 1: QVQLQQPGAELVKPGASVKMSCKASGYTFTSYNMHWVKQTPGRGLEWIGAIYPGNGDTSYNQKFKGKATLTADKSSSTAYMQLSSLRSEDSAVYYCARSTYYGGDWYFNVWGAGTTVTVSA VH 2: EVQLQESGAELARPGASVKMSCKASGYTFTSYTMHWVKQRPGEGLEWIGYINPSSGYTKYNQKFKDKATLTADKSSSTAYMELSSLTSEDSAVYYCARWQDYDVYFDYWGEGTTLTVSS VL: QIVLSQSPAILSASPGEKVTMTCRASSSVSYIRWFQQKPGSSPKPWIYATSNLASGVPVRFSGSGSGTSYSLTISRVEAEDAATYYCQQWTSNPPTFGGGTKLEIKR |
| 100% | 101% | CD20/CD3 BsMab with common VL (SEQ ID NO: 3) H33G (bispecific antibody, V domains shown) VH 1: QVQLQQPGAELVKPGASVKMSCKASGYTFTSYNMHWVKQTPGRGLEWIGAIYPGNGDTSYNQKFKGKATLTADKSSSTAYMQLSSLRSEDSAVYYCARSTYYGGDWYFNVWGAGTTVTVSA VH 2: EVQLQESGAELARPGASVKMSCKASGYTFTSYTMHWVKQRPGEGLEWIGYINPSSGYTKYNQKFKDKATLTADKSSSTAYMELSSLTSEDSAVYYCARWQDYDVYFDYWGEGTTLTVSS VL: QIVLSQSPAILSASPGEKVTMTCRASSSVSYIGWFQQKPGSSPKPWIYATSNLASGVPVRFSGSGSGTSYSLTISRVEAEDAATYYCQQWTSNPPTFGGGTKLEIKR |
| 11% | 17% | CD20/CD3 BsMab with common VL (SEQ ID NO: 3) P95Q (bispecific antibody, V domains shown) VH 1: QVQLQQPGAELVKPGASVKMSCKASGYTFTSYNMHWVKQTPGRGLEWIGAIYPGNGDTSYNQKFKGKATLTADKSSSTAYMQLSSLRSEDSAVYYCARSTYYGGDWYFNVWGAGTTVTVSA VH 2: EVQLQESGAELARPGASVKMSCKASGYTFTSYTMHWVKQRPGEGLEWIGYINPSSGYTKYNQKFKDKATLTADKSSSTAYMELSSLTSEDSAVYYCARWQDYDVYFDYWGEGTTLTVSS VL: QIVLSQSPAILSASPGEKVTMTCRASSSVSYIHWFQQKPGSSPKPWIYATSNLASGVPVRFSGSGSGTSYSLTISRVEAEDAATYYCQQWTSNPQTFGGGTKLEIKR |
| 83% | 104% | CD20/CD3 BsMab with common VL (SEQ ID NO: 3) H33V (bispecific antibody, V domains shown) VH 1: QVQLQQPGAELVKPGASVKMSCKASGYTFTSYNMHWVKQTPGRGLEWIGAIYPGNGDTSYNQKFKGKATLTADKSSSTAYMQLSSLRSEDSAVYYCARSTYYGGDWYFNVWGAGTTVTVSA VH 2: EVQLQESGAELARPGASVKMSCKASGYTFTSYTMHWVKQRPGEGLEWIGYINPSSGYTKYNQKFKDKATLTADKSSSTAYMELSSLTSEDSAVYYCARWQDYDVYFDYWGEGTTLTVSS VL: QIVLSQSPAILSASPGEKVTMTCRASSSVSYIVWFQQKPGSSPKPWIYATSNLASGVPVRFSGSGSGTSYSLTISRVEAEDAATYYCQQWTSNPPTFGGGTKLEIKR |
